Assay results: patent US20220332804A1 (CSL INNOVATION, published 2022)

Tests used:
Assay in all cases: SPR, mAb captured, C2 mutant analyte;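 also: Anti-C2 mAbs captured on goat anti-human IgG Biacore CM5 chips, alanine or serine C2 surface mutants flowed over at 37 °C, double-referenced sensorgrams fitted to a 1:1 binding model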
[1] = target: T1, human C2 F270A (human, UniProt P06681 21-752)
T1 sequence: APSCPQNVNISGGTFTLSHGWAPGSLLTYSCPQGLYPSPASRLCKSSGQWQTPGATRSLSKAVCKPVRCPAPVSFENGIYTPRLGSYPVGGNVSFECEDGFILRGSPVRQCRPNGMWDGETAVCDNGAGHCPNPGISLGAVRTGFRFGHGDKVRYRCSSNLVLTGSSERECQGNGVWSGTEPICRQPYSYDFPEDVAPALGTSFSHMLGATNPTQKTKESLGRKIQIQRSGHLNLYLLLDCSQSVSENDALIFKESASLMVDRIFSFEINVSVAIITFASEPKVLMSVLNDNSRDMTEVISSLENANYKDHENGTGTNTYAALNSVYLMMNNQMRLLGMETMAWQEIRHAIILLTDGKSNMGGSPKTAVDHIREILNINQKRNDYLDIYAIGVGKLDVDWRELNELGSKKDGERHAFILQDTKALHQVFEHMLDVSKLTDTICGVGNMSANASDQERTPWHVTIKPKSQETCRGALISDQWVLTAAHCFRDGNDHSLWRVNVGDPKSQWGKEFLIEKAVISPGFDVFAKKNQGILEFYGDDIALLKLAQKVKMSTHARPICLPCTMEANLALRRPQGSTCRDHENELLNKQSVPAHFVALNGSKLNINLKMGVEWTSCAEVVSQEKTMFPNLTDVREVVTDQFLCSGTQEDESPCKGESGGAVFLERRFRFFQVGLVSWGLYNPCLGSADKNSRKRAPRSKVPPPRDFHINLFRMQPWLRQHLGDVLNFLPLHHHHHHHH

[2] = target: T2, human C2 M452A (human, UniProt P06681 21-752)
T2 sequence: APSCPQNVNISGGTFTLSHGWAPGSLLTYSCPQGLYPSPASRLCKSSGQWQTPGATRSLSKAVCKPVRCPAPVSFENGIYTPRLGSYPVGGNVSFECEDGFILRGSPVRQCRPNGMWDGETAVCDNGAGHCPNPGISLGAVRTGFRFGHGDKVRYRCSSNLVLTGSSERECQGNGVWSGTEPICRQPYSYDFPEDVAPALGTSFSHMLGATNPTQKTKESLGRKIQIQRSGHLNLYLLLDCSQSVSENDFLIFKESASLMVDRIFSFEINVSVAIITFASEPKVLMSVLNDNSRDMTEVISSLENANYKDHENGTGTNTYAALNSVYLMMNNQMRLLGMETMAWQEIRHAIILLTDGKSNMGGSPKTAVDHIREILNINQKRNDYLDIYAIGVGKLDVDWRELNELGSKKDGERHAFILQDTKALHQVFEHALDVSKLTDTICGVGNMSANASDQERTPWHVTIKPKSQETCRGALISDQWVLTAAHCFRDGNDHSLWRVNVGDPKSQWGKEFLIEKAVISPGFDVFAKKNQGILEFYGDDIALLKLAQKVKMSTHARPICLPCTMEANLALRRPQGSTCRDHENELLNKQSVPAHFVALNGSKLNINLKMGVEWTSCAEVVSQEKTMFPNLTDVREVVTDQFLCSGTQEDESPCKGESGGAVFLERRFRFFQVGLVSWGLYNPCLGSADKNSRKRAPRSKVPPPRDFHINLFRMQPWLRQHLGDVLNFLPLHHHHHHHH

[3] = target: T3, human C2 N467A (human, UniProt P06681 21-752)
T3 sequence: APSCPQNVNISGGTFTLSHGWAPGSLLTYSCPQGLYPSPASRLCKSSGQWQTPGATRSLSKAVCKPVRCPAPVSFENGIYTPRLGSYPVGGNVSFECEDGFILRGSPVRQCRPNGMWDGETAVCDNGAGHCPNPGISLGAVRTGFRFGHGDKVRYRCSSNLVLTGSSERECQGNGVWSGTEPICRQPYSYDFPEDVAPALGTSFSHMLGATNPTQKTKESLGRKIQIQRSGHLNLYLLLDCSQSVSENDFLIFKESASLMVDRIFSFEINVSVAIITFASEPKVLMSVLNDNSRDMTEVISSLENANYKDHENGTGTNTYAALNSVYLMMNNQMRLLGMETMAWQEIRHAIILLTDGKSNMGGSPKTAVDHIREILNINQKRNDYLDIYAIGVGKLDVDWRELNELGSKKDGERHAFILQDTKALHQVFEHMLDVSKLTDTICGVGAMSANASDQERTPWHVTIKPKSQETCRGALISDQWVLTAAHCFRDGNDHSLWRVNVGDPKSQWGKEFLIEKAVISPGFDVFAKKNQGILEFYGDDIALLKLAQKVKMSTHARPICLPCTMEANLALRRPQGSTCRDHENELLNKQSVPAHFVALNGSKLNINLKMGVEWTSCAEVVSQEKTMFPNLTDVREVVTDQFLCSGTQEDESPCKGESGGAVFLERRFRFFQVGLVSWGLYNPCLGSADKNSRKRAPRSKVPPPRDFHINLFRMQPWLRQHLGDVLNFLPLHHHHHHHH

[4] = target: T4, human C2 A472S (human, UniProt P06681 21-752)
T4 sequence: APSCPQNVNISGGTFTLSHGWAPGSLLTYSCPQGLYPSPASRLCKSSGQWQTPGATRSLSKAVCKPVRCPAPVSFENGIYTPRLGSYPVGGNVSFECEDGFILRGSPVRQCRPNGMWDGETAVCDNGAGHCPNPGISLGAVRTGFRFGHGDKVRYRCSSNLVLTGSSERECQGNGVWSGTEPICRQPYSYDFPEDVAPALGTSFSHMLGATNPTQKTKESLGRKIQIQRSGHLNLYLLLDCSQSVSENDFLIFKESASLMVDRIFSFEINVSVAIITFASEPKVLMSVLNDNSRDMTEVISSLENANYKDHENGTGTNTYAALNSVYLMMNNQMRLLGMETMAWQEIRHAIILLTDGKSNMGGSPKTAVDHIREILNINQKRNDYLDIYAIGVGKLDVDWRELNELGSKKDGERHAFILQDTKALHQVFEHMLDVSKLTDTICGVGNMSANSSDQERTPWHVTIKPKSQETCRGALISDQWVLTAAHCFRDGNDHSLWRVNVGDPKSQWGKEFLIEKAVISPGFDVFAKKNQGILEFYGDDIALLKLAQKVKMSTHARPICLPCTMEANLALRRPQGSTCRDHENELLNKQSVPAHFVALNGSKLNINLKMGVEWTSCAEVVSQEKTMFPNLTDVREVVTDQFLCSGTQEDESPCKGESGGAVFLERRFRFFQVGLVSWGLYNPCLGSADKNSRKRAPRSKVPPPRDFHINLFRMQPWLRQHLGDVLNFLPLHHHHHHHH

binding result [1]: no binding | Kd [2]: 0.0213 µM | Kd [3]: 0.0772 µM | Kd [4]: 0.234 µM
B1: RF16-214 (antibody, V domains shown)
VH: EVQLLESGGGLVQPGGSLRLSCAASGFTFSWYQMMWVRQAPGKGLEWVSRIYPSGGGTAYADSVKGRFTISRDNSKNTLYLQMNSLRAEDTAVYYCARDAGYGDNWGQGTLVTVSS
VL: QSALTQPPSVSVSPGQTASITCSGDKLGEKYASWYQQKAGQSPVMVIYQDRKRPSGIPERFSGSNSGNTATLTISGTQAMDEADYYCQAWDTRAVVFGGGTKLTVLG
